Blank lines part the entries; values can stand above or below the substance they belong to.
Assays:
[1] = target: human FcγRIIa-H variant (Histidine at amino acid 131) on Jurkat effector cells (human) (UniProt P12318); experiment: cell-based or functional assay
[2] = target: FcγRIIIa on Jurkat effector cells (UniProt P08637); experiment: cell-based or functional assay
[3] = target: FcγRIIIa (secondary ADCC assays, NK effector cells) (UniProt P08637); experiment: cell-based or functional assay
[4] = target: FcγRIIa (secondary ADCP assay, M2c macrophage effector cells) (UniProt P12318); experiment: cell-based or functional assay
FcγRIIa = FcγRIIa (UniProt P12318); experiment: SPR, FcγRIIa binding
FcγRIIa, sequence (P12318 34-217 limits assumed): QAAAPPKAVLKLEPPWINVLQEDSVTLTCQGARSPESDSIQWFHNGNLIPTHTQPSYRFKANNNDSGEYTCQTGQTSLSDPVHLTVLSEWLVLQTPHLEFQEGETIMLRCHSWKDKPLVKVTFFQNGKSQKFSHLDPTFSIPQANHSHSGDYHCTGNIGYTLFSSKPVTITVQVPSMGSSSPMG

human FcγRIIa-H variant (Histidine at amino acid 131) on Jurkat effector cells (human), sequence (P12318 34-317, change not shown): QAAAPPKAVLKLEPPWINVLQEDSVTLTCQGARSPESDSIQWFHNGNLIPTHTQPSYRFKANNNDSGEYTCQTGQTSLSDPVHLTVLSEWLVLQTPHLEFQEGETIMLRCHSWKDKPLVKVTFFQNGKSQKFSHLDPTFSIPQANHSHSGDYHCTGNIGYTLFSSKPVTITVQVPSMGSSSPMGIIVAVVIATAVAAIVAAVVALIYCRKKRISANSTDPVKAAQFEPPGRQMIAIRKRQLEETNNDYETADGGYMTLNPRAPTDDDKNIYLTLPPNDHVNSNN
fucosylated anti-PD-L1 IgG1 antibody (avelumab), sequence (HC): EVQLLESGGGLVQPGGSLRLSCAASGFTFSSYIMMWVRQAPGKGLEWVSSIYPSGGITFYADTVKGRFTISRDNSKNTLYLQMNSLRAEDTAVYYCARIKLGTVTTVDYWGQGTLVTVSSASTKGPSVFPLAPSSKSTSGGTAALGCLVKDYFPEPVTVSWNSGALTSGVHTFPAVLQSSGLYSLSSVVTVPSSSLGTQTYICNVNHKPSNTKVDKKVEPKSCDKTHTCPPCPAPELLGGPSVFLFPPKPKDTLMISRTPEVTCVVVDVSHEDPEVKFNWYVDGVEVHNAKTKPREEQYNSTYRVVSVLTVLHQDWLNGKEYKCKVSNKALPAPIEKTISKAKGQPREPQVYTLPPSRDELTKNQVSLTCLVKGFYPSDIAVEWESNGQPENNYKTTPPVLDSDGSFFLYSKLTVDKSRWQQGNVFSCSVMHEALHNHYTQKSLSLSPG
fucosylated anti-PD-L1 IgG1 antibody (avelumab), sequence (LC): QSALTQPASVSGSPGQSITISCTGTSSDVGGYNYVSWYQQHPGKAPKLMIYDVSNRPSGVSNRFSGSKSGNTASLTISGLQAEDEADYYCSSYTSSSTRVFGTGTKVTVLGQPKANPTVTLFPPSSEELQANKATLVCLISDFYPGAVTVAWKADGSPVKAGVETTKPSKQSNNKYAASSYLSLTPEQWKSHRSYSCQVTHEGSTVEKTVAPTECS
afucosylated anti-PD-L1 IgG1 antibody (avelumab), sequence (HC): as the sequence (HC) above
afucosylated anti-PD-L1 IgG1 antibody (avelumab), sequence (LC): as the sequence (LC) above

Substance: afucosylated anti-CD20 IgG1 antibody (obinutuzumab)
- EC50 mean, ADCP in KILR Raji cells (M2c macrophages) [4]: 0.37 nM

Substance: afucosylated anti-PD-L1 IgG1 antibody (avelumab)
- EC50 mean, ADCC in KILR-A549 cells (NK cells) [3]: 0.0054 nM

Substance: afucosylated version of Ipilimumab (antibody)
- fold enhancement of binding by afucosylation (FcγRIIa): 10 fold

Continued, values first:

- EC50 mean, FcγRIIa signaling in ADCP reporter assay (Raji targets) [1]: 7.1 nM
- EC50 mean, FcγRIIIa signaling in ADCC reporter assay (Raji targets) [2]: 7.1 nM
- EC50 mean, ADCC in KILR Raji cells (NK cells) [3]: 0.033 nM
- EC50 mean, ADCP in KILR Raji cells (M2c macrophages) [4]: 0.82 nM
Substance: fucosylated anti-CD20 IgG1 antibody (obinutuzumab)

- EC50 mean, FcγRIIIa signaling in ADCC reporter assay (HEK-PD-L1 targets) [2]: 0.049 nM
Substance: fucosylated anti-PD-L1 IgG1 antibody (avelumab)

Source: US20200040084A1
